Source: patent US20040077054A1

Columns and labels:
[1] = target: 16K hPRL binding sites in human placental membrane fractions (human); experiment: specific binding of 100 pM 125I-16K rPRL (counts displaced by 400 nM 16K hPRL), first trimester placental membranes, n=4
[2] = target: 16K hPRL binding sites in human placental membrane fractions (human); experiment: specific binding of 100 pM 125I-16K rPRL (counts displaced by 400 nM 16K hPRL), third trimester placental membranes, n=3
[3] = target: 16K hPRL binding sites in human placental membrane fractions (human); experiment: specific binding of 100 pM 125I-16K rPRL (counts displaced by 400 nM 16K hPRL), second trimester placental membranes, n=3
[4] = target: 16K hPRL binding sites in human placental membrane fractions (human); experiment: Scatchard analysis, radioligand binding, second trimester human placental membranes
[5] = target: 16K hPRL binding sites in human placental membrane fractions (human); experiment: Scatchard analysis, radioligand binding, third trimester human placental membranes
[6] = target: 16K hPRL binding sites in human placental membrane fractions (human); experiment: Scatchard analysis, radioligand binding, first trimester human placental membranes

maximal specific binding (cpm/5 µg protein) [1]	maximal specific binding (cpm/5 µg protein) [2]	maximal specific binding (cpm/5 µg protein) [3]	maximal binding (Bmax) (fmol/µg protein) [4]	maximal binding (Bmax) (fmol/µg protein) [5]	maximal binding (Bmax) (fmol/µg protein) [6]	Substance
357	4040	1780				125I-16K rPRL (rat 16K prolactin, radioiodinated) (from UniProt P01237 30-174) (ligand)
			630	775	3.19	16K N-terminal human prolactin (ligand)
